For the series the following is noted: Escherichia coli (strain K12), pH 7.8, 25 °C, Urea, Potassium phosphate 100 mM, transition: 3, whole UniProt chain shown.

Values joined by “and” are separate entries in the source; they are usually repeats but may differ in a detail not shown here. Equal values may be shown once.

B1: Tryptophan synthase alpha chain wild type, P0A877 (protein)
chain: MERYESLFAQLKERKEGAFVPFVTLGDPGIEQSLKIIDTLIEAGADALELGIPFSDPLADGPTIQNATLRAFAAGVTPAQCFEMLALIRQKHPTIPIGLLMYANLVFNKGIDEFYAQCEKVGVDSVLVADVPVEESAPFRQAALRHNVAPIFICPPNADDDLLRQIASYGRGYTYLLSRAGVTGAENRAALPLNHLVAKLKEYNAAPPLQGFGISAPDQVKAAIDAGAAGAISGSAIVKIIEQHINEPEKMLAALKVFVQPMKAATRS
With B1, the unfolding free energy (CD) is 6.6 kcal/mol and 4.6 kcal/mol and 4.4 kcal/mol. Also, for the setting “Fluorescence”, the denaturant m value is 2.2 kcal/mol/M and 1.1 kcal/mol/M and 0.83 kcal/mol/M; the unfolding free energy was 6 kcal/mol and 4.5 kcal/mol and 4.9 kcal/mol.

The values are drawn from FireProtDB (doi:10.1110/ps.8.8.1623).
